Laboratory results as given in patent US20220002669A1 (JUNO THERAPEUTICS, published 2022).

How the values were obtained:
[1] = molecular target: T1, STREP-TACTIN M2 covalently coupled to Sephadex G50 stationary phase (Streptomyces avidinii, UniProt P22629 38-163, covalently coupled to cyanogen bromide (CNBr) activated Sephadex G50 resin); assay: loading of tagged Fab onto Strep-Tactin Sephadex G50 resin
T1 construct: Here it is immobilised on the chromatography matrix; also called immobilized Strep-Tactin reagent; selection reagent

[2] = molecular target: T2, CD4 on the surface of T cells from a human donor apheresis sample (human, UniProt P01730 26-458); assay: column affinity selection of T cells from a human apheresis sample
T2 construct: whole, on cells; also called selection marker

B1: anti-CD4 binding Fab fragment obtained from m13B8.2, heavy chain carboxy-terminally fused with a Twin Strep-Tag (Fab, V domains shown)
VH: QVQLKQSGPGLVQPSQSLSITCTVSGFSLTTFGVHWVRQSPGKGLEWLGVIWASGITDYNVPFMSRLSITKDNSKSQVFFKLNSLQPDDTAIYYCAKNDPGTGFAYWGQGTLVTVSA
VL: DIQMTQSPASLSASVGETVTFTCRASEMIYSYLAWYQQKQGKSPQLLVHDAKTLAEGVPSRFSGGGSGTQFSLKINTLQPEDFGTYYCQAHYGNPPTFGGGTKLEIKR
notes: also called anti-CD4 Fab
B1: binds [1]; binds [2].
